Source: patent publication US20260116958A1 (University of California, published 2026)
Positions count from the first letter of the chain named.

What was measured:
[1] = biological target: inactive BoNT/G (BoNT/Gi) (Clostridium botulinum) (UniProt Q60393); experiment: flow cytometry, scFv on yeast
[2] = biological target: inactive BoNT/G (BoNT/Gi) (Clostridium botulinum) (UniProt Q60393); experiment: flow cytometry, scFv on yeast; against hu6G6 Wt
active BoNT/G holotoxin = biological target: T1, active BoNT/G holotoxin (Clostridium botulinum, UniProt Q60393 2-1297)
T1 sequence: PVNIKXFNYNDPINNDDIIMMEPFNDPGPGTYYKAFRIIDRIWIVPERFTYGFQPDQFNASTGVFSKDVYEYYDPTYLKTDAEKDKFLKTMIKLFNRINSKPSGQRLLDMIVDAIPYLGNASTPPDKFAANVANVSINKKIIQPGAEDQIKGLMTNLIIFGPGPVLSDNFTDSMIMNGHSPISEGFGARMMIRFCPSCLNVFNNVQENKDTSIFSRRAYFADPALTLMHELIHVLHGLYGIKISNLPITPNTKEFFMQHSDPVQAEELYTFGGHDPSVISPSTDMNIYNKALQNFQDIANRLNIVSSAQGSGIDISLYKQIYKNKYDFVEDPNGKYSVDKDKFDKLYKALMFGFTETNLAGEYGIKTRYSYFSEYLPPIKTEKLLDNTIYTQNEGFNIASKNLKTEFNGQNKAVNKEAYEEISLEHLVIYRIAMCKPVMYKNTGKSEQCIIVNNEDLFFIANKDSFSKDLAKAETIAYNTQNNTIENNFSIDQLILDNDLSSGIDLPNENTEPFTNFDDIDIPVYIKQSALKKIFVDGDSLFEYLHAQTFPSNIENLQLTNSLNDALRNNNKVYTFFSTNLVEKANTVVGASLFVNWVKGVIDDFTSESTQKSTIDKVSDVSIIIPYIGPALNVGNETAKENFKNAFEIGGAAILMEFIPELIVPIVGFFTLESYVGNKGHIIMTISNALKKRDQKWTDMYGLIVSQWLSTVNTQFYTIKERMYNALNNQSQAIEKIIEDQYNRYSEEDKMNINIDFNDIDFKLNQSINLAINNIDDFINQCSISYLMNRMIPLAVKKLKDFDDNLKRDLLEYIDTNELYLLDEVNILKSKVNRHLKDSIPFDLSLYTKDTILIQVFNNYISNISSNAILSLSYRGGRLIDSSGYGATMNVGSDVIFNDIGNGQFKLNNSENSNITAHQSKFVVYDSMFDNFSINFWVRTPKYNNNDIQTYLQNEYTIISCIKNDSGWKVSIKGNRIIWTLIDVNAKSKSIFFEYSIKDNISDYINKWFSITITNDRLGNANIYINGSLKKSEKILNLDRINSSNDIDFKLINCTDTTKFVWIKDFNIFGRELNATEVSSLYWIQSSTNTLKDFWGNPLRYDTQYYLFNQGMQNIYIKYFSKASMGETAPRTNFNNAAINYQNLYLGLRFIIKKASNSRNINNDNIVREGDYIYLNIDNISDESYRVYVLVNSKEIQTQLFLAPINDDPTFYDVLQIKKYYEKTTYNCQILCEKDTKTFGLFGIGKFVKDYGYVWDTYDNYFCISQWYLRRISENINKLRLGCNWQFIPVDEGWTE

[3] = biological target: T2, inactive BoNT/G (BoNT/Gi) (Clostridium botulinum, UniProt Q60393 1-1297); experiment: flow cytometry, scFv on yeast
T2 sequence: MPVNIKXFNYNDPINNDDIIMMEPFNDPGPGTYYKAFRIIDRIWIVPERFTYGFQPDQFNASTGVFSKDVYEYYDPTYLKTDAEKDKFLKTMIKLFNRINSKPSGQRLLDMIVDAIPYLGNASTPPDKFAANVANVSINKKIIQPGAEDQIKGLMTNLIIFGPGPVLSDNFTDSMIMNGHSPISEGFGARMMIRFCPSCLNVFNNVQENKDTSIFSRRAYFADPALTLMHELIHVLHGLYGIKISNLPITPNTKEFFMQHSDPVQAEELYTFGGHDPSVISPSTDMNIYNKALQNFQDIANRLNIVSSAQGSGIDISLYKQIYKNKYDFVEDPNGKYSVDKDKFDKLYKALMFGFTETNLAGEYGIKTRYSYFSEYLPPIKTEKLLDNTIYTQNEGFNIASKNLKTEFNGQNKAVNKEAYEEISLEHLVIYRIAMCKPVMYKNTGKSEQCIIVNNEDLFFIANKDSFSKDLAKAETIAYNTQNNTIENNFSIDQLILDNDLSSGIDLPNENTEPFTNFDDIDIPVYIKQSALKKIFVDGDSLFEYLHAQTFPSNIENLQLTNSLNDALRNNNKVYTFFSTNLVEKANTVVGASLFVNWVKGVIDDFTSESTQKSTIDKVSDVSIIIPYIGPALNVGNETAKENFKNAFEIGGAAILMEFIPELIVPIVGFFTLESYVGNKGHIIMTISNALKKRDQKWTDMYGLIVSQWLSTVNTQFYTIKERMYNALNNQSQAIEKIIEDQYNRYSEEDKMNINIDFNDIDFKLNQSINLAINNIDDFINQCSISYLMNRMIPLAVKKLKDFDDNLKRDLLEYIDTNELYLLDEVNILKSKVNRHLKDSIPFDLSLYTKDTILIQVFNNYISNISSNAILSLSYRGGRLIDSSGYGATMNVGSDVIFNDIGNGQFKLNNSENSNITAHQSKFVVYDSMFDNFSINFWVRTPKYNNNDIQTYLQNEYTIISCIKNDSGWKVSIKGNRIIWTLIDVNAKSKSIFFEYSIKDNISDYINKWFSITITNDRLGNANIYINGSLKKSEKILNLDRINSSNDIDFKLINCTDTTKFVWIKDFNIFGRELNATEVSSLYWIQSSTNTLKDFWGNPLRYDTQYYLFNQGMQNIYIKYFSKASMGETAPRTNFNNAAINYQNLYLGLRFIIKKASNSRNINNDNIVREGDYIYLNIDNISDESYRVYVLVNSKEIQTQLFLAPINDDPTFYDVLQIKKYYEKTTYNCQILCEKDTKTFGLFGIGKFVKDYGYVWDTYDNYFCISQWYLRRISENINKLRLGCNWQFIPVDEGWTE

B1: hu6G6 variant A3 scFv (scFv)
scFv: QVQLVQSGAEVKKPGASVKLSCKASGFNIKDTYMHWVRQAPGQGLEWIGRIDPANGNTKYDPKFQGRATITAGTSINTAYLELSRLRSDDTAVYYCASGPNYYGTTWFAYWGQGTTVTVSSVDLKSGGSTSGSGKPGSGEGSSGSARKIVLTQSPSTLSASVGDRVTITCRASHGISNYLAWYQQKPGRAPKLLIYKASTLHIGVPSRFSGSGSGTEFALTISSLQPDDFSTYYCQQYISYLPHTFGQGTRLEIK
[1]
  Kd: 5.18 nM
[2]
  Improvement over WT: 4.5 fold

B2: hu6G6 variant A3.1 scFv (scFv)
scFv: B1 scFv with K148E, I239N
[1]
  Kd: 6.5 nM
[2]
  Improvement over WT: 3.5 fold

B3: hu6G6 variant B8 scFv (scFv)
scFv: B1 scFv with K12N, G73Y, I76F, T115S, K148E, I239N
[1]
  Kd: 3.75 nM
[2]
  Improvement over WT: 6.2 fold

B4: hu6G6 variant B8.1 scFv (scFv)
scFv: B1 scFv with K12N, G73Y, I76F, K148E, I239N
[1]
  Kd: 5.43 nM
[2]
  Improvement over WT: 4.3 fold

B5: hu6G6 variant A4 scFv (scFv)
scFv: B1 scFv with A54E, G73Y, T74K, G132D, K148E, I239N
[1]
  Kd: 3.46 nM
[2]
  Improvement over WT: 6.8 fold

B6: hu6G6.1 IgG (antibody, V domains shown)
VH: QVQLVQSGAEVKKPGASVKLSCKASGFNIKDTYMHWVRQAPGQGLEWIGRIDPENGNTKYDPKFQGRATITAYKSINTAYLELSRLRSDDTAVYYCASGPNYYGTTWFAYWGQGTTVTVSS
VL: EIVLTQSPSTLSASVGDRVTITCRASHGISNYLAWYQQKPGRAPKLLIYKASTLHIGVPSRFSGSGSGTEFALTISSLQPDDFSTYYCQQYNSYLPHTFGQGTRLEIKR
Active BoNT/G holotoxin
  Kd: 0.476 nM

B7: Hu6G7.1 scFv (scFv, V domains shown)
VH: QVQLVQSGAEVKKPGASVKVSCKASDYSFTDYNIYWVRQTPGQGLEWIGYIDPYNGGTSYNQKFKGRATLTVDKSISTAYMELSRLRSDDTAVYYCALYGYDPDYIDYWGQGTTLTVSS
VL: DIVLTQSPASMAVSPGQRVTITCSASSSVSYLHWFQQKPGQSPKLWIYSTSNLASGVPARFSGSGSGTDYTLTINPMEAEDTATYYCQQRSSYPYTFGQGTKLEIKR
[3]
  fold lower affinity than murine 6G7.1: 10 fold
